Assay results from publication PMC2880176.

Assays:
[1] = test system: MBP-#γA (5-finger artificial zinc finger protein) (artificial); test: EMSA
[2] = test system: MBP-#γA-opt (5-finger artificial zinc finger protein) (artificial); test: EMSA
[3] = test system: gg1 (6-finger artificial zinc finger protein) (artificial); conditions: cited from earlier work

Sequence | Kd [1] [nM] | Kd [2] [nM] | Kd [3] [nM]
GATGCCGTTTGAGGT (double strand) [γ-globin promoter #γA target site] | 3.2 | 7.1 | 
GTCAAGGCAAGGCTGGCC (double strand) [gg1 target site in γ-globin promoter] |  |  | 0.7
